Laboratory results: US20220194999A1 (Janssen / Centocor, published 2022)

Tests used:
[1] = molecular target: T1, HLA-A*02:01 class I complex (conditional p*HLA*02:01, biotinylated heavy chain with beta2-microglobulin) (human, biotinylated heavy chain); test: UV peptide exchange, HLA class I ELISA, % of Pos peptide;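 for Average %: Streptavidin-captured HLA complexes after exchange detected via HRP anti-human B2M antibody, absorbance read, colour scales with intact complex, normalized to exchange control peptide as 100%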;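 for Exch I (%): Streptavidin-captured HLA complexes after exchange detected via HRP anti-human B2M antibody, absorbance read, colour scales with intact complex, normalized to exchange control peptide as 100%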;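 for Exch II (%): Streptavidin-captured HLA complexes after exchange detected via HRP anti-human B2M antibody, absorbance read, colour scales with intact complex, normalized to exchange control peptide as 100%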
T1 construct: UV-labile peptide p* is cleaved and exchanged for the test peptide; also called HLA 2.1
Description: (§1) The HLA class I ELISA is an enzyme immunoassay based on the detection of beta2-microglobulin (B2M) of (peptide-stabilized) HLA class I complexes. To this end streptavidin is bound onto polystyrene microtiter wells. After washing and blocking, HLA complex present in exchange reaction mixtures or ELISA controls is captured by the streptavidin on the microtiter plate via its biotinylated heavy chain. Non-bound material is removed by washing. Subsequently, horseradish peroxidase (HRP)-conjugated antibody to human B2M is added. […] In the latter case B2M is removed during the washing step. After removal of non-bound HRP conjugate by washing, a substrate solution is added to the wells. A colored product is formed in proportion to the amount of intact HLA complex present in the samples. After the reaction has been terminated by the addition of a stop solution, absorbance is measured in a microtiter plate reader. The absorbance is normalized to the absorbance of an exchange control peptide (represents 100%). Also, suboptimal HLA binding of peptides with a moderate to low affinity for HLA class I molecules can be detected by this ELISA technique
(§2) Coating wells of two NUNC MaxiSorp™ 96-well ELISA plates: only the contents of one coating buffer capsule were dissolved in 100 mL of distilled water (0.05 M carbonate-bicarbonate buffer, pH 9.6 at 25° C.). 46 μL of Streptavidin stock solution were added to 23 mL coating buffer. 100 μL of the Streptavidin stock solution were added to all wells. Each microtiter plate was covered with an adhesive seal and incubated overnight at room temperature (18-25° C.).

[2] = molecular target: T1, HLA-A*02:01 class I complex …; test: as above; remark: listed apart in the source
Description: as §1, §2

Binder | Average % [1] | Exch I (%) [1] | Exch II (%) [1] | average relative binding (%) [2]
LVVVGAAGV (also called M050) [KRAS.G12A mutant peptide LVVVGAAGV] | 6.4% | 6.6% | 6.2% | < 15%
LMVVGAAGV (also called M052) [KRAS_G12A3 mimic peptide LMVVGAAGV] | 51.3% | 51% | 51.5% | –
LLVVGAVGV (also called M071) [KRAS_G12V2 mimic peptide LLVVGAVGV] | 35.9% | 31.8% | 40.1% | –
LLVVGACGV (also called M061) [KRAS_G12C2 mimic peptide LLVVGACGV] | 34.8% | 36.4% | 33.1% | –
LMVVGAVGV (also called M072) [KRAS_G12V3 mimic peptide LMVVGAVGV] | 36.1% | 39% | 33.3% | –
SMTCTYFPL (also called M211) [TP53_S127F11 mimic peptide SMTCTYFPL] | 53.5% | 56.4% | 50.6% | –
LLGRNSFEL (also called M221) [TP53_V272M2 mimic peptide LLGRNSFEL] | 98.4% | 101% | 95.7% | –
LLGRNSFEI (also called M222) [TP53_V272M3 mimic peptide LLGRNSFEI] | 66.7% | 75.3% | 58% | –
RLIHRDLAV (also called M242) [ERBB2_V842I5 mimic peptide RLIHRDLAV] | 73.6% | 69.9% | 77.3% | –
RMIHRDLAV (also called M243; ERBB2_V84216) [ERBB2_V842I6 mimic peptide RMIHRDLAV] | 57.6% | 56.7% | 58.5% | –
RMIHRDLAL (also called M241; ERBB2_V842110) [ERBB2_V842I10 mimic peptide RMIHRDLAL] | 53.7% | 51.5% | 55.8% | –
CYLYYYSYLV (also called M102) [PTEN R173C6 mimic peptide CYLYYYSYLV] | 10.7% | 10.4% | 10.9% | < 15%
CYMYYYSYLL (also called M104) [PTEN.R173C3 mimic peptide CYMYYYSYLL] | 8.5% | 8.3% | 8.7% | < 15%
CYLYYYSYLI (also called M105) [PTEN.R173C10 mimic peptide CYLYYYSYLI] | 23.3% | 27.8% | 18.9% | –
CYMYYYSYLI (also called M106) [PTEN.R173C11 mimic peptide CYMYYYSYLI] | 4.9% | 4.9% | 4.8% | < 15%
YMDSGIHFL (also called M035) [CTNNB1.S37F10 mimic peptide YMDSGIHFL] | 105% | 102% | 108% | > 100%
YLDSGIHFV (also called M032) [CTNNB1_S37F5 mimic peptide YLDSGIHFV] | 104% | 99.3% | 109% | > 100%
YMDSGIHFI (also called M031) [CTNNB1_S37F14 mimic peptide YMDSGIHFI] | 107% | 97.6% | 116% | > 100%
AMNNMFCQV (also called M162) [TP53_K132N6 mimic peptide AMNNMFCQV] | 70.1% | 69.4% | 70.8% | –
YLDCGIHSL (also called M034) [CTNNB1.S33C9 mimic peptide YLDCGIHSL] | 107% | 103% | 111% | > 100%
YMDCGIHSV (also called M023) [CTNNB1_S33C6 mimic peptide YMDCGIHSV] | 108% | 101% | 115% | > 100%
YMDCGIHSL (also called M021) [CTNNB1_S33C10 mimic peptide YMDCGIHSL] | 106% | 108% | 103% | > 100%
ILNREIDFV (also called M091) [PIK3CA_G118D5 mimic peptide ILNREIDFV] | 70.4% | 62.1% | 78.7% | –
IMNREIDFV (also called M092) [PIK3CA_G118D6 mimic peptide IMNREIDFV] | 66.7% | 68.6% | 64.9% | –
ILNREIDFL (also called M093) [PIK3CA_G118D9 mimic peptide ILNREIDFL] | 56.2% | 51.1% | 61.3% | –
KLYPVQLWI (also called M134) [TP53.C141Y12 mimic peptide KLYPVQLWI] | 73.9% | 81.3% | 66.4% | –

Binder | Average % [1] | Exch I (%) [1] | Exch II (%) [1] | average relative binding (%) [2]
KMYPVQLWV (also called M132) [TP53_C141Y3 mimic peptide KMYPVQLWV] | 76.9% | 72.7% | 81% | –
MIFSKRHWA (also called M010) [CIC.R215W mutant peptide MIFSKRHWA] | 6.2% | 6.2% | 6.1% | < 15%
GLKDLLNPV (also called M081) [PIK3CA_E453K5 mimic peptide GLKDLLNPV] | 74.9% | 73.5% | 76.3% | –
GMKDLLNPV (also called M082) [PIK3CA_E453K6 mimic peptide GMKDLLNPV] | 77.5% | 74.7% | 80.4% | –
GLAPPQLLV (also called M141) [TP53_H193L5 mimic peptide GLAPPQLLV] | 42.2% | 40.3% | 44.1% | –
GLAPPQYLI (also called M150) [TP53.H193Y mutant peptide GLAPPQYLI] | 13.3% | 13.5% | 13.1% | < 15%
GLAPPQLLI (also called M140) [TP53.H193L mutant peptide GLAPPQLLI] | 8.2% | 9.2% | 7.2% | < 15%
GMAPPQLLV (also called M142) [TP53_H193L6 mimic peptide GMAPPQLLV] | 13.9% | 13.9% | 13.9% | < 15%
GMAPPQYLV (also called M152) [TP53_H193Y6 mimic peptide GMAPPQYLV] | 21.4% | 22.5% | 20.3% | –
GLAPPQYLV (also called M151) [TP53_H193Y5 mimic peptide GLAPPQYLV] | 48.2% | 48.8% | 47.6% | –
NMDEYVHNV (also called M111) [SF3B1_R625H5 mimic peptide NMDEYVHNV] | 83.6% | 86.6% | 80.6% | –
NMDEYVHNI (also called M115) [SF3B1.R625H13 mimic peptide NMDEYVHNI] | 68.4% | 73.6% | 63.1% | –
NLDEYVHNV (also called M112) [SF3B1_R625H6 mimic peptide NLDEYVHNV] | 88.2% | 88.1% | 88.4% | –
NLDEYVHNI (also called M116) [SF3B1.R625H14 mimic peptide NLDEYVHNI] | 70.1% | 71.1% | 69% | –
NLDEYVHNL (also called M114) [SF3B1.R625H10 mimic peptide NLDEYVHNL] | 55.1% | 57.2% | 53% | –
NMDEYVHNT (also called M110) [SF3B1.R625H mutant peptide NMDEYVHNT] | 8.3% | 9.2% | 7.3% | < 15%
MMFSKRHWV (also called M013) [CIC_R215W7 mimic peptide MMFSKRHWV] | 74.4% | 76.2% | 72.6% | –
MMFSKRHWI (also called M011) [CIC_R215W15 mimic peptide MMFSKRHWI] | 42.8% | 40.4% | 45.3% | –
MLFSKRHWV (also called M012) [CIC_R215W6 mimic peptide MLFSKRHWV] | 74.3% | 74.8% | 73.8% | –
VMSDAISAL (also called M124; SOX17.S40317) [SOX17.S403I7 mimic peptide VMSDAISAL] | 77.4% | 75.3% | 79.5% | –
VLSDAISAL (also called M123; SOX17_S40316) [SOX17_S403I6 mimic peptide VLSDAISAL] | 87.3% | 91.9% | 82.6% | –
VMSDAISAV (also called M122; SOX17_S40313) [SOX17_S403I3 mimic peptide VMSDAISAV] | 92.4% | 96.9% | 87.9% | –
VVSDAISAV (also called M120; SOX17.S4031) [SOX17.S403I mutant peptide VVSDAISAV] | 86.2% | 88.5% | 83.8% | –
QLWVDSTPI (also called M181) [TP53_P152L3 mimic peptide QLWVDSTPI] | 67.9% | 62% | 73.8% | –
QLWVDSTPV (also called M182) [TP53_P152L4 mimic peptide QLWVDSTPV] | 95.7% | 95.6% | 95.7% | –
